According to the nanobody polyreactivity screen of Harvey et al. (2022):

Experiment: yeast display, Sf9 membrane polyspecificity reagent, FACS + sequencing; frameworks hold sequencing errors
Outline: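 A synthetic nanobody library was expressed on Saccharomyces cerevisiae BJ5465 by galactose induction for 36–48 hours. The library was stained for 1 hour at 4 °C with 10% biotinylated, detergent-solubilized Sf9 membrane reagent and enriched with streptavidin microbeads before FACS. Low and high (top ~1%) gates were set on anti-HA fluorescence for expression and streptavidin fluorescence for reagent binding, and each polyreactivity label reflects the gate of origin.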

Sequence: QVQLVESGGGLVQAGGSLRLSCAASGLTFGTNAMGWYRQAPGKERELVAAISTSSGSTYYADSVKGRFTISRDNAKNTVYLQMNSLKPEDTAVYYCAAVTVTKMSYYRYYYWGQGTQVTVSS
- polyreactivity (PSR sort gate): low polyreactivity

Sequence: QVQLVESGGGLVQAGGSLRLSCAASGLTFGYYVMGWYRQAPGKERELVADINFSGGSTYYADSVKGRFTISRDNAKNTVYLQMNSLKPEDTAVYYCNGVVYRFTVSTGYESWGQGTQVTVSS
- polyreactivity (PSR sort gate): low polyreactivity

Sequence: QVQLVESGGGLVQAGGSLRLSCAASGLTFHDYAMGWYIQAHVKERELVAGINSGGSTNYADSVKGRFTISRDNAKNTVYLQMNSLKPEDTAVYYCARGPQYDEGEYWGQCTQVTVSS
- polyreactivity (PSR sort gate): low polyreactivity

Sequence: QVQLVESGGGLVQAGGSLRLSCAASGLTFHRYAMGWYRQAPGKERELVADISSGDSTNYADSVKGRFTISRDNAKNTVYLQMTSLKPEDTAVYYCNTDGYIYRYRFDYWGQGTQVTVSS
- polyreactivity (PSR sort gate): low polyreactivity

Sequence: QVQLVESGGGLVQAGGSLRLSCAASGLTFHYYAMGWYRQAPGKERELVAVISSGGSTYYADSVKGRFTISRDNAKNTVYLQMNSLKPEDTAVYYCAKLSLSWDGYYQYDYRGQGTQVTVSS
- polyreactivity (PSR sort gate): low polyreactivity

Sequence: QVQLVESGGGLVQAGGSLRLSCAASGLTFIPNAMGWYRQAPGKERELVAAISGTGGSTYYADSVKGRFTISRDNAKNTVYLQMNSLKPEDTAVFYCAARAYLGYYSWGQGTQVTVSS
- polyreactivity (PSR sort gate): high polyreactivity

Sequence: QVQLVESGGGLVQAGGSLRLSCAASGLTFIRYAMGWYRQAPGKERELVASISRGGSTYYADSVKGRVTISRDNAKNTVYLQMNSLKPEDTAVYYCAAQHVGHNYYNSGFYYWGQGTQVTVSS
- polyreactivity (PSR sort gate): low polyreactivity

Sequence: QVQLVESGGGLVQAGGSLRLSCAASGLTFIYNAMGWYRQAPGKERELVAAISGNGGDTYYADSVKGRFTISRDNAKNTVYLQMNSLKPEDTAVYYCAADYAYTPITWDEYWGQGTQVTVSS
- polyreactivity (PSR sort gate): low polyreactivity

Sequence: QVQLVESGGGLVQAGGSLRLSCAASGLTFIYYAMGWYRQAPGKERELVAAISVSGGSTYYADSVKGRFTISRDNAKNTVYLQMNSLKPEDTAVYYCAADWFVHIPRYQYSFDYWGQGTQVTVSS
- polyreactivity (PSR sort gate): low polyreactivity

Sequence: QVQLVESGGGLVQAGGSLRLSCAASGLTFKENVMGWYRQAPGKERELVAAISTGASTYYADSVKGRFTISRDNAKNTVYLQMNSLKPEDTAVYYCAKRVTRWYGYWGQGTQVTVSS
- polyreactivity (PSR sort gate): high polyreactivity

Sequence: QVQLVESGGGLVQAGGSLRLSCAASGLTFKKYTIGWYRQAPGKETQLVAVITSGGSTYYADSVKGRFTISRDNAKNTVYLQMNSVKPEDTAVYYGAVKYPELRSWGNYYWGQGTQVTVSS
- polyreactivity (PSR sort gate): high polyreactivity

Sequence: QVQLVESGGGLVQAGGSLRLSCAASGLTFKPYAMVWYRQAPGKEREFVAAISWRSGSTYYADSVKGRFTISRDYEKNTVYLQMNRLKPEDTAVYYCNALYRVFVGTYDFWGQGTHVTVSS
- polyreactivity (PSR sort gate): high polyreactivity

Sequence: QVQLVESGGGLVQAGGSLRLSCAASGLTFKRYAMGWYRQAPGTEREFVAAISAGGASTHYADSVKGRFTISRDNAKNTVYLQMNSLKPEDTAVYYCATDYRTFRPSFGYWGQGTQVTVSS
- polyreactivity (PSR sort gate): low polyreactivity

Sequence: QVQLVESGGGLVQAGGSLRLSCAASGLTFKYYAMGWYRQAPGKERELVAAITSTGGRTYYADSVKGRFTISRDNAKNTVYLQMNSLKPEDTAVYYCAAYYVGSSKYDSWGQGTQVTVSS
- polyreactivity (PSR sort gate): low polyreactivity

Sequence: QVQLVESGGGLVQAGGSLRLSCAASGLTFKYYTMGWYRQAPGKERELVAAISRSGTITYYADSVKGRFTISRDNAKNTVYLQMNSLKPEDTAVYYSNKASTYPSYDYWGHGTQVTVSS
- polyreactivity (PSR sort gate): high polyreactivity

Sequence: QVQLVESGGGLVQAGGSLRLSCAASGLTFKYYTMGWYRQAPGKERELVADISRTGRTSYADSVKGRFTISRDNAKNTDYLQMNSLKPEDTAVYYCNADFYVSGYSLFASIYDYWGQGTQVTVSS
- polyreactivity (PSR sort gate): high polyreactivity

Sequence: QVQLVESGGGLVQAGGSLRLSCAASGLTFLDYAMGWYRQAPGKERELVAAITSGGSTNYADSVKGRFTISRDNAKNTVYLQMNSLKPEDTAVYYCATDLEVSAYDYWGQGTQVTVSS
- polyreactivity (PSR sort gate): low polyreactivity

Sequence: QVQLVESGGGLVQAGGSLRLSCAASGLTFLINAMGWYRQAPGKERELVAAITSSGGSTSYADSVKGRFTISRDNAKYTVYLQMNSLKPEDTAVYYCAADLNAYPQRAYDYWGQGTQVTVSS
- polyreactivity (PSR sort gate): low polyreactivity

Sequence: QVQLVESGGGLVQAGGSLRLSCAASGLTFLPNAMGWYRQAPGKERELVAAITNGGGTNYADSVKGRFTISRDNAKNTVYLQMNSLKPEDTAVYYCNADSTYFGGHDYWGQGTQVTVSS
- polyreactivity (PSR sort gate): low polyreactivity

Sequence: QVQLVESGGGLVQAGGSLRLSCAASGLTFNTSAMGWSRQAPGKEREWVAAITSSGSITYYADSVKGRFTISRDNAKNTVYLQMNSLKPEDTAVYYCAAAVGYYAFGTYPFDDWPYDYWGQGTQVTVSS
- polyreactivity (PSR sort gate): high polyreactivity

Sequence: QVQLVESGGGLVQAGGSLRLSCAASGLTFPRYAMGWYRQAPGKEREFVAGITYSGGSTYYADSVKGRFTISRDNAKNTVYLQMNSLKPEDTAVYYCAATPWSYEYYYWGQGTQVTVSS
- polyreactivity (PSR sort gate): low polyreactivity

Sequence: QVQLVESGGGLVQAGGSLRLSCAASGLTFPYYAMGWYRQAPGTERELVAAISGGGRTYYADSVKGRFTISRDNAKNTVYLQMNSLKPEDTAVYYCAPFHVGRYTGTVTDGYDYWGQGTQVTVSS
- polyreactivity (PSR sort gate): high polyreactivity

Sequence: QVQLVESGGGLVQAGGSLRLSCAASGLTFPYYSMGWYRQAPGKERVLVAAITKSGGSTYADSVKGRFTISRDNAKNTVYLQMNSLKPEDTAVYYCAAGRRKYGTKGRGDYWGQGTQVTVSS
- polyreactivity (PSR sort gate): low polyreactivity

Sequence: QVQLVESGGGLVQAGGSLRLSCAASGLTFPYYVMGWYRQAPGKERELVAAIDDGGGSTYYADSVKGRFTISRDNAKNTVYLQMNSLKPEDTAVYYCAAQVDYLAHYGYWGQGTQVTVSS
- polyreactivity (PSR sort gate): low polyreactivity

Sequence: QVQLVESGGGLVQAGGSLRLSCAASGLTFQSNAMGWSRQAPGKEREFVAAITSGGNTYYADSVKGRFTISRDNAKNTVYLQMNSLKPEDTAVYYCNADYQDEEDDYWGQGTQVTVSS
- polyreactivity (PSR sort gate): low polyreactivity

Sequence: QVQLVESGGGLVQAGGSLRLSCAASGLTFQSYDMGWYRPAPGKERELVAAISRRGGSTYYADSVKGRFTISRDNAKNTVYLQLNSLKPEDTAVYYCAAETYYTYWPYGMGYWGQGTQVTVSS
- polyreactivity (PSR sort gate): high polyreactivity

Sequence: QVQLVESGGGLVQAGGSLRLSCAASGLTFQSYDMGWYRQAPGKERELVAAISRRGGSTYYADSVKGRFTISRDNAKNTVYLQMNSLKPEDTAVYYCAAEYRSWSWRMDYWGQGTQVTVSS
- polyreactivity (PSR sort gate): high polyreactivity

Sequence: QVQLVESGGGLVQAGGSLRLSCAASGLTFQVYAMGWYRQAPGKERELVAGITRGGRTYYADSVKGRFTISRDNAKNTVYLQMNSLKPEDTAVYYCNADAPYGGPSWAKSRYEYWGQGTQVTVSS
- polyreactivity (PSR sort gate): low polyreactivity

Sequence: QVQLVESGGGLVQAGGSLRLSCAASGLTFQWYAMGWYRQAPGKERELVAAISIGGSTNYADSVKGRFTISRDNAKNTVYLQMNSLKPEDTAVYYCNKGSDFFWYDYDYWGQGTQVTVSS
- polyreactivity (PSR sort gate): low polyreactivity

Sequence: QVQLVESGGGLVQAGGSLRLSCAASGLTFQYNAMGWYRQAPGKERELVAANSRSGGRTYYADSVKGRFTISRDNAKNTVYLQLNSLKPEDTAVYYCAARDRSTRSDLTSYSVLYGNYYWGQGTQVTVSS
- polyreactivity (PSR sort gate): high polyreactivity

Sequence: QVQLVESGGGLVQAGGSLRLSCAASGLTFRAYTMGWYRQAPGKERELVAAISRSGGSTYYADSVKGRFTISRDNAKNTVYLQMNSLKPEDTAVYYCAAPGYQTVGMGYWGQGTQVTVSS
- polyreactivity (PSR sort gate): high polyreactivity

Sequence: QVQLVESGGGLVQAGGSLRLSCAASGLTFRDNAMGWYRQAPGKERELVATINSGGSTDYADSVKGRFTISRDNAKNTVYLQMNILKPEDTAVYYCAVYREYYDRGWYSIFYWYDYWGQGTQVTVSS
- polyreactivity (PSR sort gate): low polyreactivity

Sequence: QVQLVESGGGLVQAGGSLRLSCAASGLTFRFYTMGWDRQAPGKERELVAAISTSGGSTYYADSVKGRFTISRDNAKNTVYLQMNSLKPEDTAVYYCNAVYALNGYDYWGQGTQVTVSS
- polyreactivity (PSR sort gate): low polyreactivity

Sequence: QVQLVESGGGLVQAGGSLRLSCAASGLTFRGYAMGWYRQAPGKERELVAAITSSAGRTYYADSVKGRFTISRDNAKNTVYLQMNSLKPEDTAVYYCAAEYASWFGSMNYWGQGTQVTVSS
- polyreactivity (PSR sort gate): high polyreactivity

Sequence: QVQLVESGGGLVQAGGSLRLSCAASGLTFRPNAMGWYRQAPGKERELVAAISWSGRTYYADSVKGRFTISRDNAKNTVYLQMNILKPEDTAVYYCAARGYSDRYGYWGQGTQVTVSS
- polyreactivity (PSR sort gate): high polyreactivity

Sequence: QVQLVESGGGLVQAGGSLRLSCAASGLTFRRNTMGWYRQAPGKERELVATITSGGSTNYADSVKGRFTISRDNAKNTVYLQMNSLKPEDTAVYYCAARTTYITTWVYRHTYTYYYWGQGTQVTVSS
- polyreactivity (PSR sort gate): high polyreactivity

Sequence: QVQLVESGGGLVQAGGSLRLSCAASGLTFRRYAMGWYRQAPGKERELVAGISRGGSTYYADSVKGRFTISRDNAKNTVYLQMNRLKPEDTAVYYCAAYNSGTYPVQPVPYDMDYWGQGTQVTVSS
- polyreactivity (PSR sort gate): low polyreactivity

Sequence: QVQLVESGGGLVQAGGSLRLSCAASGLTFRVNDMGWYRQAPGKERELVATISSGGSTYYADSVKGRFTISRDNAKNTVYLQMNSLKPEDTAVYYCATNSEGQESNSYYVWMGYWGQGTQVTVSS
- polyreactivity (PSR sort gate): low polyreactivity

Sequence: QVQLVESGGGLVQAGGSLRLSCAASGLTFRVYAMGWYRQEPGKERELVASISRTGSTTYADSVKGRFTISRDNAKNTVYLQMNSLKPEDTAVYYCNARYYVLLWDSLAREYWGQGTQVTVSS
- polyreactivity (PSR sort gate): high polyreactivity

Sequence: QVQLVESGGGLVQAGGSLRLSCAASGLTFRYNAMGWYRQATGKERELVARISRNGGRTYYADSVKGRFTISRDNAKNTVYLQMNSLKPEDTAVYYCNVVYFVTTSPGYDYWGQGTQVTVSS
- polyreactivity (PSR sort gate): high polyreactivity

Sequence: QVQLVESGGGLVQAGGSLRLSCAASGLTFRYYAMGWYRQAPGKERELVAAISRSGGSTYYADSVKGRFTISRDNAKNTVYLQMNSLKPEDTAVYYCAAGRRGGKQGGTRGGDYWGQGTQVTVSS
- polyreactivity (PSR sort gate): high polyreactivity

Sequence: QVQLVESGGGLVQAGGSLRLSCAASGLTFRYYTMGWYRQAPGKERELVAAITKSGSSTYYADSVKGRFTISRDNAKNTVYLQMNSLKPEDTAVYYCAKDSNHWGQGTQVTVSS
- polyreactivity (PSR sort gate): high polyreactivity

Sequence: QVQLVESGGGLVQAGGSLRLSCAASGLTFSDYAIGWYRQAPGKEREFVAAITRNGGSTRYADSVKGRFTFSRDNAKNTVYLKMNRLKPEDTAVYYCATDVGFGRKQRPHRPGYGYWGQGTQVTVSS
- polyreactivity (PSR sort gate): low polyreactivity
